Measured values from US20260125468A1 (NONA BIOSCIENCES SUZHOU, published 2026).
Numbering of substitutions follows the chain as printed. Names may count otherwise.

B1: PR008551, anti-B7H4xCD3 VH(3G11)-Fc-scFv(PR003366), hIgG1(dCH1, KiH, AAA) (bispecific antibody)
chain 1: RVHLAESGGGLVQAGGSLRLSCAASGSRLNDNAMAWFRQAPGKEREFVGSIFWTGGNTYYADAVKGRLTISRDNAKNALYLQMNSLKPEDTAVYYCAASRVVWYYCSGYGCSRAGDYVYWGQGTQVTVSSASEPKSSDKTHTCPPCPAPEAAGAPSVFLFPPKPKDTLMISRTPEVTCVVVDVSHEDPEVKFNWYVDGVEVHNAKTKPREEQYNSTYRVVSVLTVLHQDWLNGKEYKCKVSNKALPAPIEKTISKAKGQPREPQVYTLPPCREEMTKNQVSLWCLVKGFYPSDIAVEWESNGQPENNYKTTPPVLDSDGSFFLYSKLTVDKSRWQQGNVFSCSVMHEALHNHYTQKSLSLSPGK
chain 2: EIVMTQSPASLSVSPGERATLSCRASQSVSSNLAWYQQKPGQAPRLLIYGASTRATGIPARVSGGGSGTEFTLTISSLQSEDFAVYYCQQYKNWPFTFGPGTKLEIKGGGGSGGGGSGGGGSGGGGSQVQLVQSGAEVKKPGSSMRVSCKASEDTFSSYAISWVRQAPGQGLEWMGGTAPIFGTTNYAQKFQGRVTITADKSTSTAYMELSSLRSEDTAVYYCARGGPYFDYWGQGTLVTVSSASEPKSSDKTHTCPPCPAPEAAGAPSVFLFPPKPKDTLMISRTPEVTCVVVDVSHEDPEVKFNWYVDGVEVHNAKTKPREEQYNSTYRVVSVLTVLHQDWLNGKEYKCKVSNKALPAPIEKTISKAKGQPREPQVCTLPPSREEMTKNQVSLSCAVKGFYPSDIAVEWESNGQPENNYKTTPPVLDSDGSFFLVSKLTVDKSRWQQGNVFSCSVMHEALHNHYTQKSLSLSPGK
B2: PR010983, anti-B7H4xCD3 S136-Fc-scFv(PR003366), hIgG1(dCH1, KIH, AAA) (bispecific antibody)
chain 1: EVQLLESGGGLVQPGGSLRLSCAASGRTSGIPAMSWVRQAPGKEREFVAMAWSGGGTIYADSVKGRFTISRDNSKNTLYLQMNSLRAEDTAVYYCAAGRSTSNRADQYNYWGQGTQVTVSSASEPKSSDKTHTCPPCPAPEAAGAPSVFLFPPKPKDTLMISRTPEVTCVVVDVSHEDPEVKFNWYVDGVEVHNAKTKPREEQYNSTYRVVSVLTVLHQDWLNGKEYKCKVSNKALPAPIEKTISKAKGQPREPQVYTLPPCREEMTKNQVSLWCLVKGFYPSDIAVEWESNGQPENNYKTTPPVLDSDGSFFLYSKLTVDKSRWQQGNVFSCSVMHEALHNHYTQKSLSLSPGK
chain 2: B1 chain 2
B3: PR010985, anti-B7H4xCD3 S138-Fc-scFv(PR003366), hIgG1(dCH1, KIH, AAA) (bispecific antibody)
chain 1: B2 chain 1 with E44G, R45L, F47W, R104Y, Q116L
chain 2: B1 chain 2
B4: PR003733, anti-B7H4xCD3 Fab(PR001848)-Fc-scFv(PR003366), hIgG1(KiH, LALA) (bispecific antibody)
heavy: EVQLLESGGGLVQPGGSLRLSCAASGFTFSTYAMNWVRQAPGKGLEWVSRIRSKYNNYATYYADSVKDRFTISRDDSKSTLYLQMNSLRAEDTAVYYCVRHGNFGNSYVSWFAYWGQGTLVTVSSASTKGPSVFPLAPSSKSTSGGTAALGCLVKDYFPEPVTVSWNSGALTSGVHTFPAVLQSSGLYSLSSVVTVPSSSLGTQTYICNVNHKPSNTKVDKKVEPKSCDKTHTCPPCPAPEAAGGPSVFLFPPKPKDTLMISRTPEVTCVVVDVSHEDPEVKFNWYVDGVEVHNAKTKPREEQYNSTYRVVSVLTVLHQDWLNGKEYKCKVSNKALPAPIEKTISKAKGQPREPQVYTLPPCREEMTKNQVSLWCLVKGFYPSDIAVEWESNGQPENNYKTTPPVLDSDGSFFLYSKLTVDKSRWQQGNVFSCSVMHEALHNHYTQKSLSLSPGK
light: QAVVTQEPSLTVSPGGTVTLTCRSSTGAVTTSNYANWVQQKPGQAPRGLIGGTNKRAPWTPARFSGSLLGDKAALTLLGAQPEDEAEYFCALWYSNLWVFGGGTKLTVLGQPKAAPSVTLFPPSSEELQANKATLVCLISDFYPGAVTVAWKADSSPVKAGVETTTPSKQSNNKYAASSYLSLTPEQWKSHRSYSCQVTHEGSTVEKTVAPTECS
chain: B1 chain 2 with A267G
B5: PR010984, anti-B7H4xCD3 S137-Fc-scFv(PR003366), hIgG1(dCH1, KIH, AAA) (bispecific antibody)
chain 1: B2 chain 1 with R104Y
chain 2: B1 chain 2
B6: PR003899, anti-B7H4xCD3 Fab(PR003886)-Fc-scFv(PR003366), hIgG1(KIH, LALA) (bispecific antibody)
heavy: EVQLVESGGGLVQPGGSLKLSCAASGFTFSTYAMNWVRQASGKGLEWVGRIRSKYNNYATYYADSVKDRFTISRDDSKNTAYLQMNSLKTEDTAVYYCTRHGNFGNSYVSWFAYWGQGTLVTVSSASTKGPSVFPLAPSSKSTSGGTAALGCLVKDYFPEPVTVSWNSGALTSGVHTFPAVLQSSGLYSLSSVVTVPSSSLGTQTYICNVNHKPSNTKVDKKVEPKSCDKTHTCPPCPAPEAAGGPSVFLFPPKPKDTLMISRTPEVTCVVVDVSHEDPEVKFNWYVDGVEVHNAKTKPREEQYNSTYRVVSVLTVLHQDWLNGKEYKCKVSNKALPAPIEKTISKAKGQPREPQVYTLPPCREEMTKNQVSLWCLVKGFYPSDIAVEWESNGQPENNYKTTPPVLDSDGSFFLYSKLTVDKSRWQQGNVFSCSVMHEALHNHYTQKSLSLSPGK
light: B4 light
chain: B1 chain 2 with A267G
B7: PR010987, anti-B7H4xCD3 S140-Fc-scFv(PR003366), hIgG1(dCH1, KIH, AAA) (bispecific antibody)
chain 1: B2 chain 1 with L5V, S35A, V37F, E44G, R45L, F47W, A97R, Q116L
chain 2: B1 chain 2
B8: PR006002, anti-B7H4xCD3 VH(A1)-Fc-scFv(PR003366), hIgG1(dCH1, KiH, LALA) (bispecific antibody)
chain 1: not shown
chain 2: B1 chain 2 with A267G
B9: PR010982, anti-B7H4xCD3 S135-Fc-scFv(PR003366), hIgG1(dCH1, KIH, AAA) (bispecific antibody)
chain 1: B2 chain 1 with E44G, R45L, F47W, Q116L
chain 2: B1 chain 2
B10: PR006003, anti-B7H4xCD3 VH(E2)-Fc-scFv(PR003366), hIgG1(dCH1, KiH, LALA) (bispecific antibody)
chain 1: not shown
chain 2: B1 chain 2 with A267G
B11: PR011628, anti-CD3 S135 HCAb hIgG1(C220S,AAG) (antibody, V domains shown)
VH: EVQLLESGGGLVQPGGSLRLSCAASGRTSGIPAMSWVRQAPGKGLEWVAMAWSGGGTIYADSVKGRFTISRDNSKNTLYLQMNSLRAEDTAVYYCAAGRSTSNRADQYNYWGQGTLVTVSS
notes: Humanized variant of PR006364; heavy-chain-only antibody
B12: PR011632, anti-CD3 S140 HCAb hIgG1(C220S,AAG) (antibody, V domains shown)
VH: B11 VH with L5V, S35A, V37F, A97R
notes: as for B11
B13: PR011631, anti-CD3 S138 HCAb hIgG1(C220S,AAG) (antibody, V domains shown)
VH: B11 VH with R104Y
notes: as for B11
B14: PR011629, anti-CD3 S136 HCAb hIgG1(C220S,AAG) (antibody, V domains shown)
VH: B11 VH with G44E, L45R, W47F, L116Q
notes: as for B11
B15: PR011630, anti-CD3 S137 HCAb hIgG1(C220S,AAG) (antibody, V domains shown)
VH: B11 VH with G44E, L45R, W47F, R104Y, L116Q
notes: as for B11
B16: PR006370, anti-CD3 SP34 chimeric hIgG1(AAG) (antibody, V domains shown)
VH: EVQLVESGGGLVQPKGSLKLSCAASGFTFNTYAMNWVRQAPGKGLEWVARIRSKYNNYATYYADSVKDRFTISRDDSQSILYLQMNNLKTEDTAMYYCVRHGNFGNSYVSWFAYWGQGTLVTVSA
VL: QAVVTQESALTTSPGETVTLTCRSSTGAVTTSNYANWVQEKPDHLFTGLIGGTNKRAPGVPARFSGSLIGDKAALTITGAQTEDEAIYFCALWYSNLWVFGGGTKLTVLG
notes: Mouse/human chimeric antibody, human IgG1 Fc-silent variant (L234A, L235A, P329G)

What was measured:
[1] = target: T1, CD3 on human T cells (human PBMCs or isolated T cells used as effector cells) (human, UniProt P07766 23-207; P04234 22-171; P09693 23-182); assay: cell-based or functional assay
[2] = target: T1, CD3 on human T cells (human PBMCs or …); assay: cell-based or functional assay; remark: listed apart in the source
[3] = target: human CD3E&D heterodimer protein (construct not specified; FIG. 9A and FIG. 12) (human, UniProt P07766 23-126; P04234 22-105); assay: ELISA on coated human CD3e&d heterodimer protein (construct not named on the sheet)
[4] = target: T2, Biotinylated human CD3e&d protein (Acro Biosystems, CDD-H82W6) (human, UniProt P07766 23-126; P04234 22-105, biotinylated protein; chain and site not stated); assay: BLI (Octet RED96e), biotinylated antigen on SA biosensors, antibody 0.375-12 nM
T2 construct: Bought protein loaded on SA Octet biosensors; also called human CD3 protein
Procedure: To determine the binding affinities of anti-CD3 antibodies to human or cynomolgus monkey CD3e&d heterodimer proteins, bio-layer interferometry (BLI) assays were carried out by using Octet® RED96e.
Biotinylated human CD3e&d protein (Acro Biosystems, CDD-H82W6) or biotinylated cynomolgus CD3e&d protein (Acro Biosystems, CDD-C82W6) was first loaded onto the surface of SA Octet biosensors (Sartorius, 18-5019) to reach capture levels between 0.5-0.8 nm. The loaded biosensors were then dipped in wells containing 2-fold serial dilutions of testing antibodies to detect association signals, followed by dissociation steps in wells containing kinetic buffer. The association phase was 180 seconds, and the dissociation phase was 900 seconds. The sensorgrams were recorded, and the reference signals were subtracted before curve fitting using ForteBio Data Analysis 11.0 software. Association rates (kon) and dissociation rates (koff) were calculated using a simple one-to-one Langmuir binding model. The equilibrium dissociation constant (KD) was calculated as the ratio of koff/kon.

[5] = target: T3, hCD3e&d-his, Human CD3 epsilon & CD3 delta Heterodimer Protein with His Tag (Acro Biosystems, CDD-H52W1) (Human, UniProt P07766 23-126; P04234 22-105); assay: ELISA, plate coated with human CD3e&d-his at 1 µg/mL, anti-human IgG Fc-HRP [B]
T3 construct: Bought protein; also called human CD3E&D heterodimer protein; not shown: His Tag fused to C-terminus of CD3 epsilon chain
Procedure: (§1) ELISA assays were conducted as briefly described: CD3 proteins were coated onto ELISA plates at 1 μg/mL; testing antibodies OKT3 and PR006364 (A1-HCAb) were diluted from 2 μg/mL to 8 different concentrations by 3-fold serial dilution, or testing antibodies PR006370 (SP34) and PR010991 (3G11-HCAb) were diluted from 100 nM to 11 different concentrations by 2-fold serial dilution; secondary antibody (anti-human IgG Fc-HRP) was used to detect PR006364, PR006370 and PR010991, and secondary antibody (anti-mouse IgG Fc-HRP) was used to detect OKT3 binding signal. The absorption signal at 450 nm (OD450) was recorded by plate reader (Molecular Devices, SpectraMax), and the data were processed and non-linear curve fitting analyzed by GraphPad Prism 8.

[6] = target: T4, hCD3e&g-his, Human CD3 epsilon & CD3 gamma Heterodimer Protein with His Tag (Acro Biosystems, CDG-H52W5) (Human, UniProt P07766 23-126; P09693 23-116); assay: ELISA, plate coated with human CD3e&g-his at 1 µg/mL, anti-human IgG Fc-HRP [D]
T4 construct: Bought protein; also called human CD3E&G heterodimer protein; not shown: His Tag fused to C-terminus of CD3 epsilon chain
Procedure: as §1

[7] = target: T5, cynoCD3e&d-his, Cynomolgus CD3 epsilon & CD3 delta Heterodimer Protein (Acro Biosystems, CDD-C52W4) (Cynomolgus, UniProt Q95LI5 22-117; Q95LI8 22-105); assay: ELISA, plate coated with cyno CD3e&d-his at 1 µg/mL, anti-human IgG Fc-HRP [C]
T5 construct: Bought protein; also called cynomolgus CD3E&D heterodimer protein; not shown: His Tag fused to C-terminus of CD3 epsilon chain; Flag Tag fused to C-terminus of CD3 delta chain
Procedure: as §1

[8] = target: T6, hCD3e-his, Human CD3 epsilon Protein with His Tag (Acro Biosystems, CDE-H5223) (Human, UniProt P07766 23-126); assay: ELISA, plate coated with human CD3e-his at 1 µg/mL, anti-human IgG Fc-HRP [E]
T6 construct: Bought protein; also called human CD3E monomeric protein; monomeric CD3E; not shown: His Tag
Procedure: as §1

T1 sequence (P07766 23-207, chain 1 of 3): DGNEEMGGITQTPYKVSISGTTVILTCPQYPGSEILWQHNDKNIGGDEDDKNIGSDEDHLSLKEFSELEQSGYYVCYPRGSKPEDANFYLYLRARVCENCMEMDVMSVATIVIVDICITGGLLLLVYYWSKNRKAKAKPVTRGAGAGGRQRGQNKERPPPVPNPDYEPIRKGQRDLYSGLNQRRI
T1 sequence (P04234 22-171, chain 2 of 3): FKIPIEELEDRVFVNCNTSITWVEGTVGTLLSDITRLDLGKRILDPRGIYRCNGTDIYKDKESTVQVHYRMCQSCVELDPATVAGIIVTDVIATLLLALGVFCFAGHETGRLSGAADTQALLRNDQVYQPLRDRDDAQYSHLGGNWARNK
T1 sequence (P09693 23-182, chain 3 of 3): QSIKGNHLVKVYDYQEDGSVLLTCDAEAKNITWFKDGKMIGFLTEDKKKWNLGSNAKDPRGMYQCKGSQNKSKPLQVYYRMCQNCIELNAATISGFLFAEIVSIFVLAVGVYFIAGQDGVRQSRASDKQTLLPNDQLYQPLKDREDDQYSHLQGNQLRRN
T2 sequence (P07766 23-126, chain 1 of 2): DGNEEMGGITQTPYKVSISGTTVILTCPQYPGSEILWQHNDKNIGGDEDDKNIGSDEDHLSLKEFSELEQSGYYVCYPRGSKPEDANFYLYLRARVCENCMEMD
T2 sequence (P04234 22-105, chain 2 of 2): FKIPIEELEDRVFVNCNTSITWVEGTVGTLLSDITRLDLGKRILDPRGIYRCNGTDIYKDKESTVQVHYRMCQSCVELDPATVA
Sequence of human CD3E&D heterodimer protein (construct not specified; FIG. 9A and FIG. 12) (P07766 23-126, chain 1 of 2): as the sequence (P07766 23-126, chain 1 of 2) above
Sequence of human CD3E&D heterodimer protein (construct not specified; FIG. 9A and FIG. 12) (P04234 22-105, chain 2 of 2): as the sequence (P04234 22-105, chain 2 of 2) above
T3 sequence (P07766 23-126, stated change not applied, chain 1 of 2): as the sequence (P07766 23-126, chain 1 of 2) above
T3 sequence (P04234 22-105, stated change not applied, chain 2 of 2): as the sequence (P04234 22-105, chain 2 of 2) above
T6 sequence (P07766 23-126 limits assumed): as the sequence (P07766 23-126, chain 1 of 2) above
T4 sequence (P07766 23-126, chain 1 of 2): as above
T4 sequence (P09693 23-116, chain 2 of 2): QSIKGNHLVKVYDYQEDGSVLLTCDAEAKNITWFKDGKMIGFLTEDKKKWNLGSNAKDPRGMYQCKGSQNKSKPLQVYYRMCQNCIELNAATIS
T5 sequence (Q95LI5 22-117, stated change not applied, chain 1 of 2): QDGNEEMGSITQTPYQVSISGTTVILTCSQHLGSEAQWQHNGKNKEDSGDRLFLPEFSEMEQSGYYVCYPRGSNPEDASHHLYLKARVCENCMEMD
T5 sequence (Q95LI8 22-105, stated change not applied, chain 2 of 2): as the sequence (P04234 22-105, chain 2 of 2) above, with I5V, N15K, I20V, S32T, D33N, I34N, T64A, S74N, V83L counted along it

| Binder | EC50 of T cell-mediated cytotoxicity to MDA-MB-468 (RTCA) [1] [nM] | Max cytotoxicity (%) of T cell-mediated cytotoxicity to MDA-MB-468 (RTCA) [1] [%] | EC50 of T cell-mediated cytotoxicity to MDA-MB-468 (RTCA, human T cells, E:T 10:1) [2] [nM] | other results |
| --- | --- | --- | --- | --- |
| B1 | 15.2 | 90.7 | – | – |
| B2 | – | – | 0.0602 | – |
| B3 | – | – | 2.91 | – |
| B4 | 0.0248 | 95.2 | – | – |
| B5 | – | – | 0.576 | – |
| B6 | 0.112 | 96.3 | – | – |
| B7 | – | – | 0.263 | – |
| B8 | 0.033 | 94.4 | 0.00111 | – |
| B9 | – | – | 0.247 | – |
| B10 | 0.0465 | 95.1 | – | – |
| B11 | – | – | – | binding result [3]: binds |
| B12 | – | – | – | binding result [3]: binds |
| B13 | – | – | – | binding result [3]: binds |
| B14 | – | – | – | Kd [4]: 0.168 nM; koff [4]: 0.00014 s⁻¹; kon [4]: 833000 M⁻¹ s⁻¹ |
| B15 | – | – | – | binding result [3]: binds |
| B16 | – | – | – | EC50 (read off the curve) [5]: ~0.6 nM; EC50 (read off the curve) [6]: ~0.8 nM; EC50 (read off the curve) [7]: ~0.7 nM; EC50 (read off the curve) [8]: ~0.8 nM |
